The first data set deals with T1, Msn1 (Saccharomyces cerevisiae) (UniProt P22148).
T1 sequence: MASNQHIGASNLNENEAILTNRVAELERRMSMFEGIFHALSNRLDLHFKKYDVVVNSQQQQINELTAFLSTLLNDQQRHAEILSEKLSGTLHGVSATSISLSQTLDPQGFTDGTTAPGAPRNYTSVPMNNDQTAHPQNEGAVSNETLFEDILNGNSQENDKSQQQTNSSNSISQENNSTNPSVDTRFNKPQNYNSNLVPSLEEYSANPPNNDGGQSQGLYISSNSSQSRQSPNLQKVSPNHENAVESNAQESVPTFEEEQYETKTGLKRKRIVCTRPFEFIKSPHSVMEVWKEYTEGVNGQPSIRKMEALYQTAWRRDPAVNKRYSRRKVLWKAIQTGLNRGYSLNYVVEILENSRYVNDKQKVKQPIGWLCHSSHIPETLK
Particulars: 200 nM.
“AAAATGTC (double strand) [8-mer AAAATGTC]” had a binding signal (PBM E-score (-0.5 to 0.5)) of 0.491.

The next data set addresses T2, Hmlalpha2 (Saccharomyces cerevisiae) (UniProt P0CY09).
T2 sequence: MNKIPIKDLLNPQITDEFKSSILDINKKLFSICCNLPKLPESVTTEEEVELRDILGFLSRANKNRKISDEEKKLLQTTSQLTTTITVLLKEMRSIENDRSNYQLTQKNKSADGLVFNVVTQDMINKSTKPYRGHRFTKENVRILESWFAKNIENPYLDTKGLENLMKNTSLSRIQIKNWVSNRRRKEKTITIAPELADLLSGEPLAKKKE
Particulars: 200 nM.
“AATTACAT (double strand) [8-mer AATTACAT]” displayed a binding signal (PBM E-score (-0.5 to 0.5)) of 0.489.
Sequence “ACATGTAA (double strand) [8-mer ACATGTAA]” yielded a binding signal (PBM E-score (-0.5 to 0.5)) of 0.488.
“ATTACACA (double strand) [8-mer ATTACACA]” came in with a binding signal (PBM E-score (-0.5 to 0.5)) of 0.492.
Regarding “ATTACACG (double strand) [8-mer ATTACACG]”, the binding signal (PBM E-score (-0.5 to 0.5)) is 0.495.
As for “ATTACATA (double strand) [8-mer ATTACATA]”, the binding signal (PBM E-score (-0.5 to 0.5)) is 0.488.
“ATTACATG (double strand) [8-mer ATTACATG]” came in with a binding signal (PBM E-score (-0.5 to 0.5)) of 0.495.
Still for that read-out and setting: with “CATGTAAA (double strand) [8-mer CATGTAAA]” the figure was 0.491; with “CATGTTAA (double strand) [8-mer CATGTTAA]”, 0.489.
Sequence “CCATGTAA (double strand) [8-mer CCATGTAA]” returned a binding signal (PBM E-score (-0.5 to 0.5)) of 0.486.
Still for that read-out and setting: the value for “CCGTGTAA (double strand) [8-mer CCGTGTAA]” was 0.486; that for “CGTGTAAA (double strand) [8-mer CGTGTAAA]” was 0.493; that for “CTTTACAC (double strand) [8-mer CTTTACAC]” was 0.489.
Take “TATGTAAA (double strand) [8-mer TATGTAAA]”: the binding signal (PBM E-score (-0.5 to 0.5)) is 0.49.
In turn, “TCGTGTAA (double strand) [8-mer TCGTGTAA]” showed a binding signal (PBM E-score (-0.5 to 0.5)) of 0.49.
For the sequence “TGTGTAAA (double strand) [8-mer TGTGTAAA]”, the binding signal (PBM E-score (-0.5 to 0.5)) came out at 0.489.

A further data set addresses T3, Gcr1 (Saccharomyces cerevisiae) (UniProt P07261).
T3 sequence: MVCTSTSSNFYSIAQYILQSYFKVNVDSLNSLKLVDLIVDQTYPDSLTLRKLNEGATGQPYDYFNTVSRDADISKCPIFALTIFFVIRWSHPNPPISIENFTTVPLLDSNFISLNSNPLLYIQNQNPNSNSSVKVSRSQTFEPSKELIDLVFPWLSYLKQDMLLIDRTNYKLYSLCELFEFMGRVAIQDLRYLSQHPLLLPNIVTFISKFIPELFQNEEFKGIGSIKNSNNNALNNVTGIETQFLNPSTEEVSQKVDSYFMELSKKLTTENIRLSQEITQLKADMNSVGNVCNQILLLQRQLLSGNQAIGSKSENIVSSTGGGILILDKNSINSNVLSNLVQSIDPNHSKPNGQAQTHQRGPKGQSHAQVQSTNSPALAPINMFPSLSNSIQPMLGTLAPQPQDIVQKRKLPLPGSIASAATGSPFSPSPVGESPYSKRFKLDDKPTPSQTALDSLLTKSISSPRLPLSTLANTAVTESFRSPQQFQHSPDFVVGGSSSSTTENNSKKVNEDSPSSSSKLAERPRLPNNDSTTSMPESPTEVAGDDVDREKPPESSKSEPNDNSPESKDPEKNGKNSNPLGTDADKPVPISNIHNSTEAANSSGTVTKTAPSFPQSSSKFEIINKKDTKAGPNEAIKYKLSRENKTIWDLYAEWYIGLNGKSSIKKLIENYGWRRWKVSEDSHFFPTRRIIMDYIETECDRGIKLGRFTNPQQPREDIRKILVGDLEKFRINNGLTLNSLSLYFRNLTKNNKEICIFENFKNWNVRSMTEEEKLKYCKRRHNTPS
Conditions: 100 nM.
Consider “AGCATCCT (double strand) [8-mer AGCATCCT]”, for which the binding signal (PBM E-score (-0.5 to 0.5)) came to 0.465.
In turn, “AGCTTCCT (double strand) [8-mer AGCTTCCT]” gave a binding signal (PBM E-score (-0.5 to 0.5)) of 0.485.
Take “AGGAAGCC (double strand) [8-mer AGGAAGCC]”: the binding signal (PBM E-score (-0.5 to 0.5)) worked out at 0.487.
For “AGGATGCC (double strand) [8-mer AGGATGCC]”, the binding signal (PBM E-score (-0.5 to 0.5)) came out at 0.47.
On the same count and under the same terms, with “CAGCGTCC (double strand) [8-mer CAGCGTCC]” the figure was 0.465; with “CGGCTTCC (double strand) [8-mer CGGCTTCC]”, 0.472.
On the same count and under the same terms, with “GAGCTTCC (double strand) [8-mer GAGCTTCC]” the figure was 0.469.
Still for that read-out and setting: with “GCTTCCTA (double strand) [8-mer GCTTCCTA]” the figure was 0.468; with “GGAAGCCA (double strand) [8-mer GGAAGCCA]”, 0.48; with “GGAAGCCC (double strand) [8-mer GGAAGCCC]”, 0.473.
Regarding “GGAATCCA (double strand) [8-mer GGAATCCA]”, the binding signal (PBM E-score (-0.5 to 0.5)) came to 0.473.
“GGAATCCC (double strand) [8-mer GGAATCCC]”: the binding signal (PBM E-score (-0.5 to 0.5)) was found to be 0.464.
On the same count and under the same terms, the value for “GGATTCCA (double strand) [8-mer GGATTCCA]” was 0.476; that for “GGCATCCA (double strand) [8-mer GGCATCCA]” was 0.469.
On the same count and under the same terms, the value for “GGCTTCCA (double strand) [8-mer GGCTTCCA]” was 0.483.

The target of a further data set is T4, Mot3 (Saccharomyces cerevisiae) (UniProt P54785).
T4 sequence: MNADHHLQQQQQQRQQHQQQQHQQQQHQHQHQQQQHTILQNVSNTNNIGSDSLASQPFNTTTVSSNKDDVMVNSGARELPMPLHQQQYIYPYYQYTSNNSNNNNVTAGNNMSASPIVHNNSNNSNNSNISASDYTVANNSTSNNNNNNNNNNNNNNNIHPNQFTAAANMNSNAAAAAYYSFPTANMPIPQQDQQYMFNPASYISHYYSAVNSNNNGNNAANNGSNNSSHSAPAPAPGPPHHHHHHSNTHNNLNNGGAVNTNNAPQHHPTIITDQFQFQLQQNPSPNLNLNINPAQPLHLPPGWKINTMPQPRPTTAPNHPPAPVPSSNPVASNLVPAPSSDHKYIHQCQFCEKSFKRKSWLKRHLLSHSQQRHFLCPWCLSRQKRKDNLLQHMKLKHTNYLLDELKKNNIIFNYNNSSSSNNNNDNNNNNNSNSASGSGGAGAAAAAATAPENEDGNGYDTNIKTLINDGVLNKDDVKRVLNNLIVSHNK
Particulars: 200 nM.
Turning to “AAAGGCAC (double strand) [8-mer AAAGGCAC]”, the binding signal (PBM E-score (-0.5 to 0.5)) amounted to 0.495.
Take “AAGGCACC (double strand) [8-mer AAGGCACC]”: the binding signal (PBM E-score (-0.5 to 0.5)) was found to be 0.493.
With “AAGGCACG (double strand) [8-mer AAGGCACG]”, the binding signal (PBM E-score (-0.5 to 0.5)) turned out to be 0.496.
On the same count and under the same terms, with “ACAGGCAC (double strand) [8-mer ACAGGCAC]” the figure was 0.495; with “ACGTGCCT (double strand) [8-mer ACGTGCCT]”, 0.494.
Same read-out and setting: with “AGGCACGC (double strand) [8-mer AGGCACGC]” the figure was 0.496; with “CAGGCACA (double strand) [8-mer CAGGCACA]”, 0.493; with “CAGGCACC (double strand) [8-mer CAGGCACC]”, 0.496.
Same read-out and setting: with “CAGGCACG (double strand) [8-mer CAGGCACG]” the figure was 0.496; with “CGTGCCTA (double strand) [8-mer CGTGCCTA]”, 0.495.
As to “GAAGGCAC (double strand) [8-mer GAAGGCAC]”, the binding signal (PBM E-score (-0.5 to 0.5)) amounted to 0.495.
As for “GCAGGCAA (double strand) [8-mer GCAGGCAA]”, the binding signal (PBM E-score (-0.5 to 0.5)) stood at 0.493.
The sequence “GCAGGCAC (double strand) [8-mer GCAGGCAC]” yielded a binding signal (PBM E-score (-0.5 to 0.5)) of 0.497.
Consider “GTAGGCAC (double strand) [8-mer GTAGGCAC]”, for which the binding signal (PBM E-score (-0.5 to 0.5)) was determined as 0.495.
The same measure, in the same setting: with “GTGCCTGA (double strand) [8-mer GTGCCTGA]” the figure was 0.493.

A further data set has as its target T5, Ecm22 (Saccharomyces cerevisiae) (UniProt Q05958).
T5 sequence: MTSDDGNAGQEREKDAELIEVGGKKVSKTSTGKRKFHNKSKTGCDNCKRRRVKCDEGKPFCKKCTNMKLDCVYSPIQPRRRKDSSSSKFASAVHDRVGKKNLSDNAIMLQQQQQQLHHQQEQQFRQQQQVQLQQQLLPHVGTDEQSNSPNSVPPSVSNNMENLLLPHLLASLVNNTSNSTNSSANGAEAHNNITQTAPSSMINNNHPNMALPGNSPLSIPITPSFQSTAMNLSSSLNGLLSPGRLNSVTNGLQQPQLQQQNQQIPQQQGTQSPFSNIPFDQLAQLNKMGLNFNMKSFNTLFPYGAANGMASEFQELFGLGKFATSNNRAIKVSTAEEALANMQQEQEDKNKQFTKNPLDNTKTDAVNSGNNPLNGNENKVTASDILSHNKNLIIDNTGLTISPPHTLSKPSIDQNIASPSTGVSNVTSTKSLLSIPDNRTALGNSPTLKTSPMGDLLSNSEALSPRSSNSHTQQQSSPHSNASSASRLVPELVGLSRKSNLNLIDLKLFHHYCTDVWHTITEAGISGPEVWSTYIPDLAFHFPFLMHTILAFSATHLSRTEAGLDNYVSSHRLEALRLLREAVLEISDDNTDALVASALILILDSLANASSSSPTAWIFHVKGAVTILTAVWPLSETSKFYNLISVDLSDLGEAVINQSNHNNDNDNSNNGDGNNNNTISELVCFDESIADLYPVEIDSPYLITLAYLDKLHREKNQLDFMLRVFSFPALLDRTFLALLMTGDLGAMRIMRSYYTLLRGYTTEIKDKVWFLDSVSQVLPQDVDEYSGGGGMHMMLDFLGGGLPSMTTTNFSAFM
Conditions: 200 nM.
Sequence “AGGAACGA (double strand) [8-mer AGGAACGA]” gave a binding signal (PBM E-score (-0.5 to 0.5)) of 0.495.
“AGGTACGA (double strand) [8-mer AGGTACGA]” came in with a binding signal (PBM E-score (-0.5 to 0.5)) of 0.495.
“CGGAACGA (double strand) [8-mer CGGAACGA]” registered a binding signal (PBM E-score (-0.5 to 0.5)) of 0.493.
“CTCGTACC (double strand) [8-mer CTCGTACC]” displayed a binding signal (PBM E-score (-0.5 to 0.5)) of 0.496.
Consider “CTCGTTCC (double strand) [8-mer CTCGTTCC]”, for which the binding signal (PBM E-score (-0.5 to 0.5)) is 0.496.
In the case of “GGTACGAC (double strand) [8-mer GGTACGAC]”, the binding signal (PBM E-score (-0.5 to 0.5)) was found to be 0.495.

The values are drawn from publication PMC3334620.
